Test results: US10087225B2, “Formulation of MK2 inhibitor peptides” (MOERAE MATRIX, INC., priority 2015, dated 2018)

Tests used:
[1] = Heat-accelerated stability of MMI-0100 in buffers pH 4-8 (pH, appearance, HPLC assay, impurities); conditions: in citrate
Text: Testing of stability samples included pH (initial only), appearance, HPLC assay and impurities. CC=clear and colorless.

[2] = biological target: T1, SAPK4(h) (Homo sapiens, UniProt O15264); assay: Kinase Profiling Assay; assay type: biochemical; conditions: 100 μM
T1 sequence (O15264 1-365): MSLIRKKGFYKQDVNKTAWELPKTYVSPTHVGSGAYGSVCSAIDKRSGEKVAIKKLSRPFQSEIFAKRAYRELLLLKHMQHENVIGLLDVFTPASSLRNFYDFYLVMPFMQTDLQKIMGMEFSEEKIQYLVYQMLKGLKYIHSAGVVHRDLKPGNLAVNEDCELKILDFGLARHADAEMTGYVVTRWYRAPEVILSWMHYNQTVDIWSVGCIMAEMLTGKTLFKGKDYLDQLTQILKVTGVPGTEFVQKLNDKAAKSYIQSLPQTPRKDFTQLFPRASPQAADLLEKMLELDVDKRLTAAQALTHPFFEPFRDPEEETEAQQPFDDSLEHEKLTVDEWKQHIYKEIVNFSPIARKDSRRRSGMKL

[3] = biological target: Ab1(H396P)(h) (Homo sapiens, UniProt P00519, H396P); assay: Kinase Profiling Assay; assay type: biochemical; conditions: 100 μM
[4] = biological target: T2, IKKβ(h) (Homo sapiens, UniProt O14920); assay: Kinase Profiling Assay; assay type: biochemical; conditions: 100 μM
T2 sequence (O14920 1-756): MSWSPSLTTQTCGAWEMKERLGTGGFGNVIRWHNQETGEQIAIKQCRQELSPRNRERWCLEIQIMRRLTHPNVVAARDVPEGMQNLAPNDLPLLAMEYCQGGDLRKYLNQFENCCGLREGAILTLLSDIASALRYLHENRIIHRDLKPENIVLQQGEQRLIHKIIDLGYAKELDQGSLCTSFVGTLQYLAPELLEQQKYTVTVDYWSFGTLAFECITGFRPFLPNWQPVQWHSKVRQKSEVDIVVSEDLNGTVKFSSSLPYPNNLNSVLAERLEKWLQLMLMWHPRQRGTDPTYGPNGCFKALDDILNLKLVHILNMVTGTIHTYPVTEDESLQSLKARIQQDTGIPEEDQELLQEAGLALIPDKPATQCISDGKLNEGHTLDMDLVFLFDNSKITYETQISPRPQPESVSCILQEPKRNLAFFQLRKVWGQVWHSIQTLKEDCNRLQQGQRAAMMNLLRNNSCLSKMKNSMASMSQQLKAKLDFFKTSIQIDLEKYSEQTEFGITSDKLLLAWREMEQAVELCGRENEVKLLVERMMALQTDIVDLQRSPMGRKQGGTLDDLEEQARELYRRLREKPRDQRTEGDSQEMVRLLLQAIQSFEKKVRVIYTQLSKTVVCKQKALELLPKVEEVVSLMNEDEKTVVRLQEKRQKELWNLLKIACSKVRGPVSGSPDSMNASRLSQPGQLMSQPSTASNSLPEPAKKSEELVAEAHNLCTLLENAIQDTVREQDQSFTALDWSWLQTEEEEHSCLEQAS

[5] = biological target: Rsk3(h) (Homo sapiens, UniProt Q15349); assay: Kinase Profiling Assay; assay type: biochemical; conditions: 100 μM
Chain of Rsk3(h) (Q15349 whole entry): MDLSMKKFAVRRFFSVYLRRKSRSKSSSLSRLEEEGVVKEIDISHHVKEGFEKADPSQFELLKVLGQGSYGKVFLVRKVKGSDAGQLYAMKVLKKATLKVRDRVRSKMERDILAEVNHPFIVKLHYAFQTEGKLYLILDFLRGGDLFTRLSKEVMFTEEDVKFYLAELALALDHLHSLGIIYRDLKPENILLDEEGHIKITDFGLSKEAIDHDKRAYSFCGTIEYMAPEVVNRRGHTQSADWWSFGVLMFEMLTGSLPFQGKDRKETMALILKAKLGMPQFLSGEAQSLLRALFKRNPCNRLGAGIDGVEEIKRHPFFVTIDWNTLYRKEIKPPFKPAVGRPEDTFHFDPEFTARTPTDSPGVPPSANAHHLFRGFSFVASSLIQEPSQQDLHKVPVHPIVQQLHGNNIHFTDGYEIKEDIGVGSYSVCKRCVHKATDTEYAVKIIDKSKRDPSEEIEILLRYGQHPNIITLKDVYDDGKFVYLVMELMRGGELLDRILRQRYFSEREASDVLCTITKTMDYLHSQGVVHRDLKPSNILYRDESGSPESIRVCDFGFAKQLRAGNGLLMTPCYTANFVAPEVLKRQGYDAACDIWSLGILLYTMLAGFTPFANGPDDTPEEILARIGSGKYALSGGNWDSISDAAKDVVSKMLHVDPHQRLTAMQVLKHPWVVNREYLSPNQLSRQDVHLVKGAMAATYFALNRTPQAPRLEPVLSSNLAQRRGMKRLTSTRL

[6] = biological target: MEK1(h) (Homo sapiens, UniProt Q02750); assay: Kinase Profiling Assay; assay type: biochemical; conditions: 100 μM
[7] = biological target: LIMK1(h) (Homo sapiens, UniProt P53667); assay: Kinase Profiling Assay; assay type: biochemical; conditions: 100 μM
Chain of LIMK1(h) (P53667 whole entry): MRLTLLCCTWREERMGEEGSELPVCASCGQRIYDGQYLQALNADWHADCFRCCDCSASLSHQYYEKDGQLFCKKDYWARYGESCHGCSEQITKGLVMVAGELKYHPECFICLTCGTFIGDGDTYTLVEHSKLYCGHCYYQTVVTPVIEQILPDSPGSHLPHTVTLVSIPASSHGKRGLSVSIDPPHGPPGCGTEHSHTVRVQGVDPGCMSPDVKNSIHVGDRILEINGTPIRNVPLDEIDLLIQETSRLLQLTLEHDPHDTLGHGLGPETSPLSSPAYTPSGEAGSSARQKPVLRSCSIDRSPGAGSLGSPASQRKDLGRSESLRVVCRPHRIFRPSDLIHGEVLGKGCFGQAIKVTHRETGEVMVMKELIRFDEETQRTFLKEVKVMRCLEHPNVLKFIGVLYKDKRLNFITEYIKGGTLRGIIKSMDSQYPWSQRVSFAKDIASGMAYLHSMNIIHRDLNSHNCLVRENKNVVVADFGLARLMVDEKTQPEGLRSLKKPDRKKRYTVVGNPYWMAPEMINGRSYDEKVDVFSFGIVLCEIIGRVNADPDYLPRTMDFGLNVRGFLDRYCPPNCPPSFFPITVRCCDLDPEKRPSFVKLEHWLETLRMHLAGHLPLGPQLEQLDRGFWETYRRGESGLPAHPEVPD

[8] = biological target: T3, Aurora-A(h) (Homo sapiens, UniProt O14965); assay: Kinase Profiling Assay; assay type: biochemical; conditions: 100 μM
T3 sequence (O14965 1-403): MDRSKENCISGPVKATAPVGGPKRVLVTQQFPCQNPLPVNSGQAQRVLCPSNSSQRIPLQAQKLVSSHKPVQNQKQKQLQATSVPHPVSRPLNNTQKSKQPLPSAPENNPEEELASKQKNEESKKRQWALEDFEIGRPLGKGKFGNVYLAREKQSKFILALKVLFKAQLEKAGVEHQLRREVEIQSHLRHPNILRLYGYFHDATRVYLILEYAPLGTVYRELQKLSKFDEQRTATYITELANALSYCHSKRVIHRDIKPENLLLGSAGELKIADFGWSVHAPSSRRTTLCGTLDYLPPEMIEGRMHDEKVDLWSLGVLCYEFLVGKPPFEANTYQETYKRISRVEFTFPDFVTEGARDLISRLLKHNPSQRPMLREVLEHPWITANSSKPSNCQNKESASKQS

[9] = biological target: MRCKβ(h) (Homo sapiens, UniProt Q9Y5S2); assay: Kinase Profiling Assay; assay type: biochemical; conditions: 100 μM
Chain of MRCKβ(h) (Q9Y5S2 whole entry): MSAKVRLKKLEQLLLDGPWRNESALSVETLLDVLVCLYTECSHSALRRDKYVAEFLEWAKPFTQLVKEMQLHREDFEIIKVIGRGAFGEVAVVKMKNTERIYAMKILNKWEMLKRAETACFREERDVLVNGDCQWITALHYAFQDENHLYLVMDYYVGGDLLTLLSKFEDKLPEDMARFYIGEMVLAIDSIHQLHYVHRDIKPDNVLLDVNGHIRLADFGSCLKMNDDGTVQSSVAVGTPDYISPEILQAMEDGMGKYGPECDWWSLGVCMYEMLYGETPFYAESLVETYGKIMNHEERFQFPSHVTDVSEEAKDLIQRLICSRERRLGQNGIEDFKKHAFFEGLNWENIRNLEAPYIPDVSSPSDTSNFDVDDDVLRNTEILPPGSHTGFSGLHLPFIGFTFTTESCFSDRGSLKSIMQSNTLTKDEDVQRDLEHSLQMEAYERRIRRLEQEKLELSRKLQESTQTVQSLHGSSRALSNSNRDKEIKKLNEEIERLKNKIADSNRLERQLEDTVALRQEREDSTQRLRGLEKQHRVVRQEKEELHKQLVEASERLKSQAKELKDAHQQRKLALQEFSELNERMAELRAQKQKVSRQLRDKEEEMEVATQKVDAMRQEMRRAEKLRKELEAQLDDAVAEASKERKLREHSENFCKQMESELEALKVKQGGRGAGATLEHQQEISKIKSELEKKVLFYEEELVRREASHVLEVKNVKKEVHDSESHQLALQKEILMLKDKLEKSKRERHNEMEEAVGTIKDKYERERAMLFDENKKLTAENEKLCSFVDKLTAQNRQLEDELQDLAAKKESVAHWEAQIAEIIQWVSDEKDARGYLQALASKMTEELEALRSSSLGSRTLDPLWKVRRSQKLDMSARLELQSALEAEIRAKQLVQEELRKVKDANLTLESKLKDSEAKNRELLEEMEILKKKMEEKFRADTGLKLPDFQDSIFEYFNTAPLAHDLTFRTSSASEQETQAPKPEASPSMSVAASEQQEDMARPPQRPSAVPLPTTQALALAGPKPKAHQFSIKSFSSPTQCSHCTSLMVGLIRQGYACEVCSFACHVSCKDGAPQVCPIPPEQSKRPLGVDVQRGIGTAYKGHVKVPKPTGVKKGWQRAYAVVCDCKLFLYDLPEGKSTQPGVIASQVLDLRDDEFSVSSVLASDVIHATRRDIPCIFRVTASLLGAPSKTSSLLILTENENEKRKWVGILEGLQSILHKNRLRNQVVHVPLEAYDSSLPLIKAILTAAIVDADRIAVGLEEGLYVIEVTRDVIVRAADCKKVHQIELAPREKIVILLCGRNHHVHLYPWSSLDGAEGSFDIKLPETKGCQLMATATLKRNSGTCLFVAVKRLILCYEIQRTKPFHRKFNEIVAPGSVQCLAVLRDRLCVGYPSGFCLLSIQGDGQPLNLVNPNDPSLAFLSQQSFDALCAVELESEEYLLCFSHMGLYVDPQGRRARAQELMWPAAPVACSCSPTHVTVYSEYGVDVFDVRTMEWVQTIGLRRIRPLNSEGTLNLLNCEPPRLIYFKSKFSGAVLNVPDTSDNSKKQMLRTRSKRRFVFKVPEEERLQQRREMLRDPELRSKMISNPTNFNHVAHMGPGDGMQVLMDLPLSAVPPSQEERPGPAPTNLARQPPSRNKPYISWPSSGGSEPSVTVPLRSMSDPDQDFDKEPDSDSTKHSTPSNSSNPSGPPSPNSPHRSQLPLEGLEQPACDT

[10] = biological target: Ab1(M351T)(h) (Homo sapiens, UniProt P00519, M351T); assay: Kinase Profiling Assay; assay type: biochemical; conditions: 100 μM
[11] = biological target: EGFR(T790M)(h) (Homo sapiens, UniProt P00533, T790M); assay: Kinase Profiling Assay; assay type: biochemical; conditions: 100 μM
[12] = biological target: GRK5(h) (Homo sapiens, UniProt P34947); assay: Kinase Profiling Assay; assay type: biochemical; conditions: 100 μM
Chain of GRK5(h) (P34947 whole entry): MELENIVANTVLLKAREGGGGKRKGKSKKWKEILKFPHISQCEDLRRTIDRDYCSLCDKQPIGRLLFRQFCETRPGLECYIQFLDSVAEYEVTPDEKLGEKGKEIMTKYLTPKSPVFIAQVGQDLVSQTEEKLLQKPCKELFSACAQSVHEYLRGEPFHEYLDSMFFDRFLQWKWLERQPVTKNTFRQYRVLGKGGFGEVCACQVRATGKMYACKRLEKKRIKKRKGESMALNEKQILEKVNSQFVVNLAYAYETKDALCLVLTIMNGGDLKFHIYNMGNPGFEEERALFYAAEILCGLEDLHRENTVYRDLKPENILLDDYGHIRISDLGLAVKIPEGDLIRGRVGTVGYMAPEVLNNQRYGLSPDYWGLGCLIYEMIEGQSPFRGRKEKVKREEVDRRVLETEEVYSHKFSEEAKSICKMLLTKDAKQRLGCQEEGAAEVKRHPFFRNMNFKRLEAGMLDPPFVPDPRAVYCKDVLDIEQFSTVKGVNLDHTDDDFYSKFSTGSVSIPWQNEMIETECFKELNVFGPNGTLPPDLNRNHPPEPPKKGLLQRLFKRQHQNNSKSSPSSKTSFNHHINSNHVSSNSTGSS

[13] = biological target: IGF-1R(h) (Homo sapiens, UniProt P08069); assay: Kinase Profiling Assay; assay type: biochemical; conditions: 100 μM
[14] = biological target: Fgr(h) (Homo sapiens, UniProt P09769); assay: Kinase Profiling Assay; assay type: biochemical; conditions: 100 μM

H-YARAAARQARAKALARQLGVAA-OH [MMI-0100]
pH of greatest stability [1]: 6

HRRIKAWLKKIKALARQLGVAA (Mammalian) [MMI-0500]
% activity [2]: 48% | % activity [3]: 51% | % activity [4]: 71% | % activity [5]: 23% | % activity [6]: 21% | % activity [7]: 87% | % activity [8]: 110% | % activity [9]: -10% | % activity [10]: 61% | % activity [11]: 70%

YARAAARQARAKALNRQLGVA (Mammalian) [MMI-0200]
% activity [12]: 135% | % activity [13]: 49% | % activity [14]: 71%
